Results: article PMC3549664

B1: keratin 18 (K18, hK18): K18 S30/31/49A (Gly−) (protein)
parent chain: MSFTTRSTFSTNYRSLGSVQAPSYGARPVSSAASVYAGAGGSGSRISVSRSTSFRGGMGSGGLATGIAGGLAGMGGIQNEKETMQSLNDRLASYLDRVRSLETENRRLESKIREHLEKKGPQVRDWSHYFKIIEDLRAQIFANTVDNARIVLQIDNARLAADDFRVKYETELAMRQSVENDIHGLRKVIDDTNITRLQLETEIEALKEELLFMKKNHEEEVKGLQAQIASSGLTVEVDAPKSQDLAKIMADIRAQYDELARKNREELDKYWSQQIEESTTVVTTQSAEVGAAETTLTELRRTVQSLEIDLDSMRNLKASLENSLREVEARYALQMEQLNGILLHLESELAQTRAEGQRQAQEYEALLNIKVKLEAEIATYRRLLEDGEDFNLGDALDSSNSMQTIQKTTTRRIVDGKVVSETNDTKVLRH
B2: keratin 18 (K18, hK18): K18 Gly− (protein)
parent chain: B1 parent chain

Assays:
[1] = survival after PUGNAc then Fas antibody; conditions: glycan lost; control: FVB/n and hK18 WT mice
[2] = Coomassie of high salt extract, hK18 blot; conditions: glycan lost; control: hK18-WT mouse line
[3] = immunofluorescence of liver and pancreas, basal; conditions: glycan lost; control: hK18 WT mice
[4] = gross appearance, histology, Oil red O, PAS, insulin stain; conditions: glycan lost; control: hK18 WT mice
anti-K18 pS53 blot = conditions: glycan lost; control: K18 WT transfectants

| Protein | other: mouse lethality after PUGNAc/Fas [1] | expression_or_secretion [2] | other: keratin filament organisation [3] | other: tissue injury after STZ [4] | other: K18 S34/S53 phosphorylation (anti-K18 pS53 blot) |
| --- | --- | --- | --- | --- | --- |
| B1 | increases | no change | no change | increases | – |
| B2 | – | – | – | – | no change |
